Experimental data: paper PMC5517500, “Cyclic di-GMP regulates Mycobacterium tuberculosis resistance to ethionamide” (Scientific Reports, 2017)

T1: Ycdc (Escherichia coli, UniProt P0ACU2)
T1 construct: gene rutR
T1 sequence (P0ACU2 1-212): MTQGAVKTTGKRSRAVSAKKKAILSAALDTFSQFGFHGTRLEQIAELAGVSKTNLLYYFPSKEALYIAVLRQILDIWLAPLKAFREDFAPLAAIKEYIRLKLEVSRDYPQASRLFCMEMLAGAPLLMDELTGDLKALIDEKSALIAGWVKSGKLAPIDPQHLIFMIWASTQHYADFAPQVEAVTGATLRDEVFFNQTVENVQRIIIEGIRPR

B1: etha promoter DNA (dsDNA)
DNA 1: CGGTCATGGATCCACGCTATCAACGTAATGTCGAGGCCGTCAACGAGATGTCGACACTATCGA
DNA 2: CTGACTGGCCGCGGAGGTGGTCACCCTGGCAGCTTACTACGTGTCGATAGATGTCGACATCTCGTTGACGG

Legend:
[1] = biological target: T1, Ycdc; experiment: incubation with bio-c-di-GMP (Supplementary Fig. S4b); assay type: binding
[2] = biological target: T2, EthR (Mycobacterium tuberculosis H37Rv, UniProt P9WMC1 1-216); experiment: BLI; no c-di-GMP; conditions: protein: recombinant; tags: 6xHis (E. coli, pET28a) or GST (yeast); chain copies: 2; label: biotin on second strand (Ms6440pr)
T2 sequence (P9WMC1 whole entry): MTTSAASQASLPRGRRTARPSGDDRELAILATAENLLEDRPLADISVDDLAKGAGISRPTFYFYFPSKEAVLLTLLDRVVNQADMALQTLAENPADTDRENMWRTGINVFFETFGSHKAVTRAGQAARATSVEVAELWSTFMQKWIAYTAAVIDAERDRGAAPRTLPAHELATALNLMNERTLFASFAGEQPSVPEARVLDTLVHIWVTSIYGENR

[3] = biological target: T2, EthR; experiment: BLI; 50 uM c-di-GMP; conditions: protein: recombinant; tags: 6xHis (E. coli, pET28a) or GST (yeast); chain copies: 2; label: biotin on second strand (Ms6440pr)

| Molecule | incubation with bio-c-di-GMP (Supplementary Fig. S4b) [1] | Kd [2] [µM] | Kd [3] [µM] |
| --- | --- | --- | --- |
| Nc1nc2c(ncn2[C@@H]2O[C@@H]3COP(=O)(O)O[C@H]4[C@@H](O)[C@H](n5cnc6c(=O)[nH]c(N)nc65)O[C@@H]4COP(=O)(O)O[C@H]3[C@H]2O)c(=O)[nH]1 [c-di-GMP] | we incubated Escherichia coli Ycdc with bio-c-di-GMP, the result clearly showed that they bind each other | – | – |
| B1 | – | 1.34 | 1.12 |
